Experimental data from US20210292396A1.

Columns and labels:
Assay in all cases: cell-based or functional assay
[1] = target: Env of HIV isolate 0439.v5.c1 (clade A) (HIV)
[2] = target: Env of HIV isolate 0921.v2.c14 (clade C) (HIV)
[3] = target: Env of HIV isolate 16845-2.22 (clade C) (HIV)
[4] = target: Env of HIV isolate 269-12 (clade AG) (HIV)
[5] = target: Env of HIV isolate 3988.25 (clade B) (HIV)
[6] = target: Env of HIV isolate 5768.04 (clade B) (HIV)
[7] = target: Env of HIV isolate BJOX009000.02.4 (clade AE) (HIV)
[8] = target: Env of HIV isolate CAAN.A2 (clade B) (HIV)
[9] = target: Env of HIV isolate CAP244.D3 (clade C) (HIV)
[10] = target: Env of HIV isolate CH038.12 (clade BC) (HIV)
[11] = target: Env of HIV isolate CNE55 (clade AE) (HIV)
[12] = target: Env of HIV isolate CNE56 (clade AE) (HIV)
[13] = target: Env of HIV isolate HXB2.DG (clade B) (HIV)
[14] = target: Env of HIV isolate MB201.A1 (clade A) (HIV)
[15] = target: Env of HIV isolate MB539.2B7 (clade A) (HIV)
[16] = target: Env of HIV isolate SF162.LS (clade B) (HIV)
[17] = target: Env of HIV isolate T266-60 (clade AG) (HIV)
[18] = target: Env of HIV isolate T278-50 (clade AG) (HIV)
[19] = target: Env of HIV isolate TH966.8 (clade AE) (HIV)
[20] = target: Env of HIV isolate TZA125.17 (clade C) (HIV)
[21] = target: Env of HIV isolate WITO.33 (clade B) (HIV)
[22] = target: Env of HIV isolate X2278.C2.B6 (clade B) (HIV)
[23] = target: Env of HIV isolate ZM135.10a (clade C) (HIV)
[24] = target: HIV Env of isolate 0330.v4.c3 (HIV)
[25] = target: HIV Env of isolate 0921.v2.c14 (HIV)
[26] = target: HIV Env of isolate 16055-2.3 (HIV)
[27] = target: HIV Env of isolate 26191-2.48 (HIV)
[28] = target: HIV Env of isolate 288.38 (HIV)
[29] = target: HIV Env of isolate 3301.v1.c24 (HIV)
[30] = target: HIV Env of isolate 3326.v4.c3 (HIV)
[31] = target: HIV Env of isolate 3337.v2.c6 (HIV)
[32] = target: HIV Env of isolate 3637.v5.c3 (HIV)
[33] = target: HIV Env of isolate 3873.v1.c24 (HIV)
[34] = target: HIV Env of isolate 6101.10 (HIV)
[35] = target: HIV Env of isolate 620345.c1 (HIV)
[36] = target: HIV Env of isolate 6838.v1.c35 (HIV)
[37] = target: HIV Env of isolate AC10.29 (HIV)
[38] = target: HIV Env of isolate ADA.DG (HIV)
[39] = target: HIV Env of isolate BJOX010000.06.2 (HIV)
[40] = target: HIV Env of isolate BX08.16 (HIV)
[41] = target: HIV Env of isolate CAP244.D3 (HIV)
[42] = target: HIV Env of isolate DU172.17 (HIV)
[43] = target: HIV Env of isolate JRCSF.JB (HIV) (UniProt P20871)
Sequence of HIV Env of isolate JRCSF.JB (HIV) (P20871 32-848 limits assumed): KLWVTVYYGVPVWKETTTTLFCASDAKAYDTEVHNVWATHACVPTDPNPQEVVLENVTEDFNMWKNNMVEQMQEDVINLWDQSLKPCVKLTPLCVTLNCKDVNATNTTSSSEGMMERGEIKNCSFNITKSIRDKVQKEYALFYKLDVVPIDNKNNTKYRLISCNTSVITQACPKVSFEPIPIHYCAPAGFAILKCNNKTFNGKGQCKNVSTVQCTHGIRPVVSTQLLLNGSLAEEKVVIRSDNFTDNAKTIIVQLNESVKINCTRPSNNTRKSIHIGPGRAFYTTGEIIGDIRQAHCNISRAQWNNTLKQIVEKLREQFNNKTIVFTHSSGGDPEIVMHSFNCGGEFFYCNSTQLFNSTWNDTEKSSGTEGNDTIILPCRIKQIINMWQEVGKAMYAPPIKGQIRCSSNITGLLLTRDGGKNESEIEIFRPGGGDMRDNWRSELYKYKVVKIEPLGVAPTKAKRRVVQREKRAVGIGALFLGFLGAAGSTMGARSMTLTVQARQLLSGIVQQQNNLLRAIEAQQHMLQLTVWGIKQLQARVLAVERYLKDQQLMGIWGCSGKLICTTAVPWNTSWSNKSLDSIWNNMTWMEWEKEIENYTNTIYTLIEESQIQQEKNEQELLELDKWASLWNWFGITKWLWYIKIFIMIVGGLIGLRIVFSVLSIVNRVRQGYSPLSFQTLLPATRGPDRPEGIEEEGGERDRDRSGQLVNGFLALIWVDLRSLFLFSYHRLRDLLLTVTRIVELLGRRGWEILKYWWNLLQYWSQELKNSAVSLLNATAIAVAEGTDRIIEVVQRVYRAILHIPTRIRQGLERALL

[44] = target: HIV Env of isolate MB539.2B7 (HIV)
[45] = target: HIV Env of isolate NKU3006.ec1 (HIV)
[46] = target: HIV Env of isolate QH0692.42 (HIV)
[47] = target: HIV Env of isolate SO18.18 (HIV)
[48] = target: HIV Env of isolate T33-7 (HIV)
[49] = target: HIV Env of isolate TH976.17 (HIV)
[50] = target: HIV Env of isolate X2088.c9 (HIV)
[51] = target: HIV Env of isolate X2278.C2.B6 (HIV)
[52] = target: HIV Env of isolate ZM53.12 (HIV)
[53] = target: HIV Env of isolate ZM55.28a (HIV)

## PGT121 (antibody)
[1]
  IC50, pseudovirus neutralization: > 50 µg/mL
[2]
  IC50, pseudovirus neutralization: > 50 µg/mL
[3]
  IC50, pseudovirus neutralization: 2.72 µg/mL
[4]
  IC50, pseudovirus neutralization: 0.128 µg/mL
[5]
  IC50, pseudovirus neutralization: 0.0127 µg/mL
[6]
  IC50, pseudovirus neutralization: 0.118 µg/mL
[7]
  IC50, pseudovirus neutralization: 0.751 µg/mL
[8]
  IC50, pseudovirus neutralization: 0.0193 µg/mL
[9]
  IC50, pseudovirus neutralization: > 50 µg/mL
[10]
  IC50, pseudovirus neutralization: 0.0113 µg/mL
[11]
  IC50, pseudovirus neutralization: > 50 µg/mL
[12]
  IC50, pseudovirus neutralization: > 50 µg/mL
[13]
  IC50, pseudovirus neutralization: > 50 µg/mL
[14]
  IC50, pseudovirus neutralization: 0.00933 µg/mL
[15]
  IC50, pseudovirus neutralization: > 50 µg/mL
[16]
  IC50, pseudovirus neutralization: 0.00733 µg/mL
[17]
  IC50, pseudovirus neutralization: 0.143 µg/mL
[18]
  IC50, pseudovirus neutralization: > 50 µg/mL
[19]
  IC50, pseudovirus neutralization: > 50 µg/mL
[20]
  IC50, pseudovirus neutralization: 1.45 µg/mL
[21]
  IC50, pseudovirus neutralization: 0.479 µg/mL
[22]
  IC50, pseudovirus neutralization: 0.026 µg/mL
[23]
  IC50, pseudovirus neutralization: 0.748 µg/mL
[24]
  IC80: 0.211 µg/mL
[25]
  IC80, pseudovirus neutralization: > 50 µg/mL
[26]
  IC80, pseudovirus neutralization: 2.78 µg/mL
[27]
  IC80, pseudovirus neutralization: 0.236 µg/mL
[28]
  IC80, pseudovirus neutralization: 0.0443 µg/mL
[29]
  IC80: 0.05 µg/mL
[30]
  IC80, pseudovirus neutralization: > 50 µg/mL
[31]
  IC80, pseudovirus neutralization: > 50 µg/mL
[32]
  IC80, pseudovirus neutralization: > 50 µg/mL
[33]
  IC80, pseudovirus neutralization: 0.113 µg/mL
[34]
  IC80: 0.0353 µg/mL
[35]
  IC80: > 50 µg/mL
[36]
  IC80, pseudovirus neutralization: 0.21 µg/mL
[37]
  IC80: 0.149 µg/mL
[38]
  IC80: 0.109 µg/mL
[39]
  IC80: > 50 µg/mL
[40]
  IC80: 0.021 µg/mL
[41]
  IC80, pseudovirus neutralization: > 50 µg/mL
[42]
  IC80, pseudovirus neutralization: 0.41 µg/mL
[43]
  IC80: 0.162 µg/mL
[44]
  IC80: > 50 µg/mL
[45]
  IC80, pseudovirus neutralization: > 50 µg/mL
[46]
  IC80: 5.8 µg/mL
[47]
  IC80, pseudovirus neutralization: 0.0167 µg/mL
[48]
  IC80: > 50 µg/mL
[49]
  IC80: > 50 µg/mL
[50]
  IC80, pseudovirus neutralization: 0.019 µg/mL
[51]
  IC80: 0.072 µg/mL
[52]
  IC80, pseudovirus neutralization: 0.00767 µg/mL
[53]
  IC80, pseudovirus neutralization: 0.216 µg/mL
